Results: patent US20250388652A1 (BEIJING WISDOMAB BIOTECHNOLOGY, published 2025)
Numbering of substitutions follows the chain as printed.

B1: anti-RSV monoclonal antibody Palivizumab (Hu1129) (antibody, V domains shown)
VH: QVTLRESGPALVKPTQTLTLTCTFSGFSLSTSGMSVGWIRQPPGKALEWLADIWWDDKKDYNPSLKSRLTISKDTSKNQVVLKVTNMDPADTATYYCARSMITNWYFDVWGAGTTVTVSS
VL: DIQMTQSPSTLSASVGDRVTITCKCQLSVGYMHWYQQKPGKAPKLWIYDTSKLASGVPSRFSGSGSGTEFTLTISSLQPDDFATYYCFQGSGYPFTFGGGTKLEIK
B2: recombinant monoclonal antibody R3B1h1 against F protein of RSV (human IgG1-K version) (antibody, V domains shown)
VH: QVQLVQSGAEVKKPGSSVKVSCKASGGLLEDYIINWVRQAPGQGLEWMGGIIPVLGTVHYGPKFQGRVTITADESTSTAYMELSSLRSEDTAVYYCATETAIVVTESYRPHFFDNWGQGTLVTVSS
VL: DIQMTQSPSSLSASVGDRVTITCQASQDIVNYLNWYQQKPGKAPKLLIYVASNLETGVPSRFSGSGSGTDFTFTISSLQPEDIATYYCQEFAGLALNFGGGTKVEIKR
B3: anti-RSV monoclonal antibody Nirsevimab (MEDI8897) (antibody, V domains shown)
VH: B2 VH with K19M, K23Q, L45P, S77D, V93M, I102L, T105S, S107T, R109L, F112Y
VL: DIQMTQSPSSLSAAVGDRVTITCQASQDIVNYLNWYQQKPGKAPKLLIYVASNLETGVPSRFSGSGSGTDFSLTISSLQPEDVATYYCQQYDNLPLTFGGGTKVEIK
B4: recombinant monoclonal antibody R22B1 against F protein of RSV (human IgG1-K version) (antibody, V domains shown)
VH: QVQLVQSGAEVKKPGSSVMVSCQASGDPLQNYIINWVRQAPGQGPEWMGAIIPALGSAHYGPKFQGRVTITADESTDTAYMELSSLRSEDTAMYYCATETAVIISESYLPHFFDNWGQGTLVTVSS
VL: B2 VL with S14A, T72S, F73L, I83V, F91Y, A92D, G93S, N97A
B5: anti-RSV monoclonal antibody Clesrovimab (RB1) (antibody, V domains shown)
VH: EVQLVESGGGLVRPGRSLRLSCTVSGFSFDDSAMSWVRQAPGKGLEWISFIKSKTYGGTKEYAASVKGRFTISRDDSKNIAYLQMNSLKTEDTAVYYCTRGAPYGGNSDYYYGLDVWGQGTTVTVSS
VL: DIQMTQSPSSLSASVGDRVTITCRTSQDVRGALAWYQQKPGKAPKLLIFDASSLETGVPSRFSGSGSGTVFTLTISSLQPEDFAAYYCQQFLDFPFTFGQGTRLEIK

Tests used:
[1] = molecular target: T1, F protein mutant RSV-DS-Cav1-A with a DS-Cav1 structure before fusion (respiratory syncytial virus subtype A, …, UniProt P03420 26-513)
[2] = molecular target: T2, F protein of strain 18537 of RSV subtype B (respiratory syncytial virus subtype B, …, UniProt P13843 26-574); experiment: cell-based or functional assay
[3] = molecular target: T1, F protein mutant RSV-DS-Cav1-A with a …; remark: listed apart in the source
[4] = molecular target: T3, F protein of strain A2 of RSV subtype A (respiratory syncytial virus subtype A, …, UniProt P03420 26-574); experiment: cell-based or functional assay
[5] = molecular target: T2, F protein of strain 18537 of RSV …; experiment: cell-based or functional assay; remark: listed apart in the source
[6] = molecular target: T3, F protein of strain A2 of RSV subtype A; experiment: cell-based or functional assay; remark: listed apart in the source

Row | Binder | Kd [1] | koff [1] | kon [1] | IC50(nM), inhibition of strain RSV/18537 infection of Hep-2 cells (RFFIT) [2] | EC50 (read off the curve) [3] | neutralisation activity against RSV/A2 relative to Clesrovimab, by IC50 [4] | neutralisation activity against RSV/A2 relative to Nirsevimab, by IC50 [4] | neutralisation activity against RSV/A2 relative to Palivizumab, by IC50 [4] | neutralisation activity against RSV/18537 relative to Clesrovimab, by IC50 [5] | neutralisation activity against RSV/18537 relative to Nirsevimab, by IC50 [5] | neutralisation activity against RSV/18537 relative to Palivizumab, by IC50 [5] | IC50(nM), inhibition of RSV/A2 strain infection of Hep-2 cells (RFFIT) [6]
1 | B1 | 2.6 nM | 8.2e-05 s⁻¹ | 31600 M⁻¹ s⁻¹ | 4.15 nM |  |  |  |  |  |  |  | 
2 | B2 | 0.621 nM | 2.37e-05 s⁻¹ | 31800 M⁻¹ s⁻¹ |  | ~0.1 nM | ~12 fold | ~5 fold | ~410 fold | ~12 fold | ~18 fold | ~545 fold | 0.00516 nM
3 | B3 | 0.477 nM | 1.5e-05 s⁻¹ | 31500 M⁻¹ s⁻¹ | 0.139 nM |  |  |  |  |  |  |  | 
4 | B4 | 0.354 nM | 1.41e-05 s⁻¹ | 39900 M⁻¹ s⁻¹ | 0.111 nM |  |  |  |  |  |  |  | 
5 | B5 | 17.6 nM | 0.000351 s⁻¹ | 20000 M⁻¹ s⁻¹ | 0.088 nM |  |  |  |  |  |  |  | 
